Consider one substance from patent US5945513.

In this assay the target is soluble recombinant human gp39 (CD8-gp39 fusion protein) (murine; human).

On to “CD40-Ig (modified by L234F, L235E and G237A in the immunoglobulin domain) (from UniProt P25942) (Fc fusion)”, for which the inhibition of shgp39/IF5 or shgp39/PMA driven tonsillar B cell proliferation was found to be 50 % inhibition.
